13 molecules from patent US20250262297A1, “ALLERGY ANTIGEN AND EPITOPE THEREOF” (HOYU CO., LTD., priority 2017, published 2025) can be followed below.

The chains are these.
B1: uncharacterized protein LOC100306570 (protein)
chain: MASQSNTKSVHDFTVKDARGNNVNLADYKGKVLLIVNVASQCGLTNSNYTELNQLYEKYKGKGLEILAFPCNQFGAQEPGTNEEIVEFACTRFKAEFPIFDKVDVNGDNAAPLYKFLKSSKGGLFGDSIKWNFSKFLVDKDGNVVDRYAPTTSPLSIEKDIKKLLDA
B2: ATP synthase subunit O, mitochondrial-like (protein)
chain: MALCNRVRSGISLFTKSTFLTSQRSTLQRSLVAPFISLASRNYANVPGQKETKVKVPLALFGGSGNYASALYIASVKANAVEKVETELLQFVEAVKNSPIFSQFIRDLSVAKDVRVKVIQDICGEAKFSDVTKNFLVIVAENGRLKNIDTIAKRFAQLSMAYKGEVQATVTTVVPLPPEEEKALKETLQEIIGSGAKVHLEQKIDPSILGGLVLEFSQKVFDMSIKTRAQQMERILREPVSIANI
B3: 35 kDa seed maturation protein isoform X1 (protein)
chain: MASRQQFKEDRAEAAAKLAAKDIGDINRTNERDEGYDLHDEANFKQARAEAAAKLAAKDLEDANRLRDNTFNTWKEQHQHDENKPGVIGSMFRAAKEAVVGKPHHEEVYAKETKMGEYSDYATQKARETKQKAGEYTDYAAQKAKETKDYAAEKAKNAKDTTVQKAGEYKDYTAEKAKNAKDTTVQKAGEYKDYTAEKAIEGKDSAVGKLGELKESAADAAKRAMGFFTGGNKDQTREEEEETRRSMQEVRVQDKEYGTGRGTGEKLVIKMEESRPGAVADALKAANRAMDGDMEEEGVLHVERRREKM
B4: eukaryotic translation initiation factor 5A-2 (protein)
chain: MSDEEHHFESKADAGASKTYPQQAGTIRKNGYIVIKGRPCKVVEVSTSKTGKHGHAKCHFVGIDIFTAKKLEDIVPSSHNCDVPHVNRTDYQLIDIAEDGFLSLLTENGNTKDDLKLPTDESLLTQIKDGFAEGKDLVVSVMSAMGEEQICALKDIGPKN
modifications: Glycine max
notes: spot also identified as uncharacterized protein LOC100305510
B5: phosphoglycerate kinase, cytosolic (protein)
chain: MATKRSVGTLKEGDLKGKRVFVRVDLNVPLDDNLNITDDTRVRAAVPTIKYLTGYGAKVILSSHLGRPKGVTPKYSLKPLVPRLSQLLGIEVTMANDSIGEEVEKLVTQLPEGGVLLLENVRFYKEEEKNDPEFAKKLASLADLYVNDAFGTAHRAHASTEGVAKYLKPSVAGFLMQKELDYLVGAVSNPKRPFAAIVGGSKVSSKIGVIESLLEKVNVLLLGGGMIFTFYKAQGYSVGSSLVEEDKLSLATTLLEKAKAKGVSLLLPTDVVIADKFAADANSKTVPASSIPDGWMGLDIGPDSIKTFGEALDTTQTIIWNGPMGVFEFDKFATGTEAIAKKLAELSGKGVTTIIGGGDSVAAVEKVGLADKMSHISTGGGASLELLEGKQLPGVLALDDA
modifications: Glycine max
B6: alcohol dehydrogenase 1 (protein)
chain: MSSSTVGQVIKCKAAVSWEAGKPLVIEEVEVAPPQAGEVRLKILYTSLCHTDVYFWEAKGQTPLFPRIFGHEAGGIVESVGEGVTHLKPGDHALPVFTGECGECPHCKSEESNMCDLLRINTDRGVMIHDSQTRFSIKGQPIYHFVGTSTFSEYTVVHAGCVAKVNPAAPLDKICVLSCGICTGLGATINVAKPKPGSSVAIFGLGAVGLAAAEGARISGASRIIGVDLVSSRFEEAKKFGVNEFVNPKDHDKPVQEVIAAMTNGGVDRAVECTGSIQAMISAFECVHDGWGVAVLVGVPNKDDAFKTHPVNFLNERTLKGTFYGNYKPRTDLPSVVEKYMNGELELEKFITHTVPFSEINKAFDYMLKGESIRCIIRMGE
modifications: Glycine max
notes: spot also identified as alcohol dehydrogenase 1-like
B7: superoxide dismutase [Mn], mitochondrial (protein)
chain: MAARALLTRKTLATVLRNDAKPIIGVGITAAATHSRGLHVYTLPDLDYDYGALEPAISGDIMQLHHQKHHQTYITNYNKALEQLQDAIAKKDSSAVVKLQGAIKFNGGGHVNHSIFWKNLAPVREGGGEPPKGSLGWAIDTHFGSFEALIQKVNAEGAALQGSGWVWLGLDKELKRLVVETTANQDPLVTKGPNLVPLIGIDVWEHAYYLQYKNVRPDYLKNIWKVINWKYASEVYEKESS
modifications: Glycine max
notes: spot also identified as hypothetical protein GLYMA_04G221300
B8: uncharacterized protein LOC100499771 (protein)
chain: MAPIAVGDVIPDGILAYLDEENKPQTVSIHSLAAGKKVIIFGVPGAFTPTCSLKHVPGFIERAEELKGKGVDEIICISVNDPFVMNSWAKTFPENKHVKFLADGAAKYTNALGLELDLTDKGLGVRSKRFALLVEDLKVKVANVESGGEFTISSAEEIIKAL
modifications: Glycine max
notes: spot also identified as hypothetical protein GLYMA_09G192800
B9: P24 oleosin isoform A (protein)
chain: MTTQVPPHSVQVHTTTHRYEAGVVPPGARFEPPRYEAGVKAPSIYHSERGPTTSQVLAVLAGLPVGGILLLLAGLTLAGTLTGLAVATPLFVLFSPVLVPATVAIGLAVAGFLTSGAFGLTALSSFSWILNYIRETQPASENLAAAAKHHLAEAAEYVGQKTKEVGQKTKEVGQDIQSKAQDTREAAARDAREAAARDAREAAARDAKVEARDVKRTTVTATTATA
modifications: Glycine max
B10: seed maturation protein PM22 (protein)
chain: MSQLLDKAKNFVSEKVNDMAKPEASVTDVDFKRVSKDNVEYLAKVSVRNPYSTSIPICEINYSFKSASREIASGKIPDPGSLKAKDTTMVDVPVKVPYSILMSLAKDIGADWDIDYQLDLGLVIDVPVIGIFTIPLSQKGEIKLPTLSTMFA
B11: uncharacterized protein At3g49720-like isoform X2 (protein)
chain: MTRKQASSTRRGGLSGVLHSKSKSSPLLSISLVLFVAILLILYACIGSGILGGRKDVISMAEDDFSCTFEVPSAIPVLKNAYGGSMKNVLHVGPESCSVVSKFLREGETEAWGVEPYDLDDADRNCKALVQKGIIRVADIKFPLPYRVKSFSHVIVSDALDYLSPKYINKTLPELARVSSDGIIIFTGYPGQPRAKIAPLSKFGRPHRC
B12: endoplasmin homolog isoform X2 (protein)
chain: MRKWTVASALLLLSLLFLFADQGRKFQANAEGDSDELVDPPKVEDKIGAVPHGLSTDSDVVKREAESISKRSLRSNAEKFEFQAEVSRLMDIIINSLYSNKDIFLRELISNASDALDKIRFLSLTDKEVLGEGDNTKLDIQIKLDKEKKILSIRDRGIGMTKEDLIKNLGTIAKSGTSAFVEKMQTSGDLNLIGQFGVGFYSVYLVADYVEVISKNNDDKQYVWESKADGAFAISEDTWNEPLGRGTEIRLHLKEEAGEYLEESKLKELVKRYSEFINFPIYIWASKEVDVEVPADEDDSSDEEDSSESSSKEESEDEDADKSEDEEKKPKTKTVKETTYEWELLNDVKAIWLRNPKEVTEEEYTKFYHSLAKDFSDEKPLAWSHFTAEGDVEFKAVLFVPPKAPQDLYESYYNANKSNLKLYVRRVFISDEFNELLPKYLNFLLGLVDSDTLPLNVSREMLQQHSSLKTIKKKLIRKALDMIRRIADEDPDESTDKEKKDASSDNDEKKGQYSKFWNEFGKSIKLGIIEDATNRNRLAKLLRFESTKSEGKLTSLDQYISRMKTGQKDIFYITGTSKEQLENSPFLERLKKKNFEVIFFTDPVDEYLMQYLMDYEDKKFQNVSKEGLKLGKDSKDKELKESFKDLTKWWKTALSKDNVDDVKISNRLDNTPCVVVTSKFGWSANMERIMQSQTLSDASKQAYMRGKRVLEINPRHPIIKELRERVVKNPEDEGVKHTAQLMYQTALFESGFLLDDPKDFASRIYDSVKTSLDISPEATVEEEDDTEVEAESDAKEDSKPETDAVNDDNDVKDEL
modifications: Glycine max
B13: seed maturation protein PM34 (protein)
chain: MASGEQKFPPQQQQTQPGKEHAMTPVPQFTSPDYKPSNKLQGKIALVTGGDSGIGRAVCNLFALEGATVAFTYVKGHEDKDARDTLEMIKRAKTSDAKDPMAIASDLGYDENCKRVVDEVVSAYGCIDILVNNAAEQYECGTVEDIDEPRLERVFRTNIFSYFFMARHALKHMKEGSSIINTTSVNAYKGHAKLLDYTSTKGAIVAYTRGLALQLVSKGIRVNGVAPGPIWTPLIPASFKEEETAQFGAQVPMKRAGQPIEVAPSYVFLASNQCSSYITGQVLHPNGGTVVNG
modifications: Glycine max
notes: spot also identified as uncharacterized protein LOC100809384 and hypothetical protein GLYMA_10G155300

For the experiment, the system named is IgE antibodies from soybean-allergic patients. Nature of the experiment: Immunoblotting of two-dimensional electrophoresis pattern of soybean proteins with patient serum. Type of experiment: binding, human. Particulars: spot in 2D electrophoresis gel of soybean proteins; patient serum compared with healthy subject serum. The source says: Transfer to membrane was done using the following transfer system and transfer buffer. • Transfer system: XCell SureLock Mini-Cell and XCell II Blot Module (produced by Life Technologies) • Transfer buffer: NuPAGE Transfer Buffer (X20) (produced by Life Technologies), used in a form diluted 20-fold with milliQ water.
To be specific, proteins in the two-dimensional electrophoresis gels were transferred to a membrane (PVDF membrane) according to the following procedure. • (1) The PVDF membrane was immersed in 100% methanol followed by milliQ water, and then moved into the transfer buffer to hydrophilize the PVDF membrane. • (2) After sponge, filter paper, the gels treated by second-dimensional SDS-PAGE, the hydrophilized PVDF membrane, filter paper, and sponge were put in place in this order, the transfer system was energized at a constant voltage of 30 V for one hour.
Immunoblotting of the membrane was carried out using, as a primary antibody, a serum sample from a patient with a soybean allergy or a serum sample from a healthy subject.
Immunoblotting of the membrane was carried out according to the following procedure. • (1) The transferred membrane was shaken in a 5% skim milk/PBST solution (a PBS buffer containing 0.3% Tween 20 nonionic surfactant) at room temperature for one hour. • (2) The membrane was left to stand in a solution of 3% primary antibody serum in 5% skim milk/PBST at room temperature for one hour. • (3) The membrane was washed with a PBST solution (5 min.×3 times). • (4) The membrane was left to stand in a 1:2500 dilution of the secondary antibody, anti-human IgE-HRP (horseradish peroxidase), with a 3% skim milk/PBST solution at room temperature for one hour. • (5) The membrane was washed with a PBST solution (5 min.×3 times). • (6) The membrane was left to stand in Pierce Western Blotting Substrate Plus (produced by Thermo Fisher Scientific) for 5 minutes.
The membrane obtained through the foregoing series of treatments was subjected to fluorescent image scanning on Typhoon 9400 (produced by GE).
The immunoblots obtained with the serum from the soybean-allergic patient were compared with those obtained with the control serum from the healthy subject.
For orientation: In western blotting, separated proteins are transferred to a membrane and probed.
As to B1, the “specific binding to IgE antibodies from soybean-allergic patients” value (“specific binding to IgE antibodies” for short) is given as “specific binding”.

With B2, the “specific binding to IgE antibodies” value is “specific binding”.

With B3, the “specific binding to IgE antibodies” value is “specific binding”.

As for B4, the “specific binding to IgE antibodies” value is reported as “specific binding”.

Take B5: the “specific binding to IgE antibodies” value is reported as “specific binding”.

Take B6: the “specific binding to IgE antibodies” value is listed as “specific binding”.

Take B7: the “specific binding to IgE antibodies” value is recorded as “specific binding”.

As for B8, the “specific binding to IgE antibodies” value is listed as “specific binding”.

With B9, the “specific binding to IgE antibodies” value is listed as “specific binding”.

For the molecule B10, the “specific binding to IgE antibodies” value is on record as “specific binding”.

Regarding B11, the “specific binding to IgE antibodies” value is “specific binding”.

Take B12: the “specific binding to IgE antibodies” value was “specific binding”.

Turning to B13, the “specific binding to IgE antibodies” value is reported as “specific binding”.
